{"source": "the supplement of paper PMC12042874", "note": "± gives the uncertainty stated by the source.", "data": [{"assay": "amyloid nucleation score (Sup35N fusion, yeast selection) (log enrichment); library NNK1; higher = more nucleation; inactive = no reads after selection", "how_it_was_run": "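Nucleation score is defined as the DiMSum log enrichment of output over input reads, with centring on the mode score of non-aggregating sequences. A minimum of 100 input reads was required for each sequence. Reads came from Illumina sequencing of plasmid inserts from psi-negative yeast expressing Sup35N fused to peptides of 20 random codons, induced with 100 μM copper sulfate for 24 hours and grown 7 days at 30°C on medium lacking adenine and uracil.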", "values": [{"substance": "SNQQLRWCECVYNGATGKVK", "amyloid nucleation score": "1.35 ± 0.47"}, {"substance": "SNSKK", "amyloid nucleation score": "0.009 ± 0.25"}, {"substance": "SNSRPGSGYSLFERTRYRNE", "amyloid nucleation score": "0.345 ± 0.77"}, {"substance": "SNTDYCVSVPVLTVAFSVWA", "amyloid nucleation score": "-0.343 ± 0.51"}, {"substance": "SNTSMHRLLLIIVGKNMNVV", "amyloid nucleation score": "0.261 ± 1"}, {"substance": "SNWLM", "amyloid nucleation score": "2.06 ± 0.53"}, {"substance": "SPAFPP", "amyloid nucleation score": "0.798 ± 0.79"}, {"substance": "SPGAWKHSNPDGDCNGLA", "amyloid nucleation score": "0.525 ± 0.49"}, {"substance": "SPGMWGMGVDNSKSGRWALR", "amyloid nucleation score": "1.89 ± 0.28"}, {"substance": "SPLVDLYDFRWRLESRYKNY", "amyloid nucleation score": "0.107 ± 0.61"}, {"substance": "SPPTMIETGTHKASSH", "amyloid nucleation score": "0.199 ± 0.57"}, {"substance": "SPRSLMKGVITTHIIG", "amyloid nucleation score": "0.917 ± 0.4"}, {"substance": "SPSKLGSE", "amyloid nucleation score": "0.903 ± 0.56"}, {"substance": "SPTLARSVWFRCLCTANGRE", "amyloid nucleation score": "0.698 ± 0.93"}, {"substance": "SQAETLYFYVCQVLRGQYYD", "amyloid nucleation score": "0.305 ± 0.32"}, {"substance": "SQAMTPNGVTSLLFTN", "amyloid nucleation score": "-0.236 ± 0.59"}, {"substance": "SQCQFVMVDRNGYGTKLRNY", "amyloid nucleation score": "-0.24 ± 0.36"}, {"substance": "SQGAMFVTFMFLEYVMPQPP", "amyloid nucleation score": "3.95 ± 0.089"}, {"substance": "SQINWILYTSNFTLW", "amyloid nucleation score": "-1.02 ± 1.7"}, {"substance": "SQSIAVCMVKCNCDCVHIGE", "amyloid nucleation score": "6.126 ± 0.05"}, {"substance": "SQTNSIISCLERFAGGLVLI", "amyloid nucleation score": "0.349 ± 0.55"}, {"substance": "SQVGALFDVPQSVNDSFKNM", "amyloid nucleation score": "0.399 ± 0.57"}, {"substance": "SRCHQRTYEVIAEYDLSKTE", "amyloid nucleation score": "0.223 ± 0.52"}, {"substance": "SRFDGTNIVCSSGMWFCAWK", "amyloid nucleation score": "8.35 ± 0.045"}, {"substance": "SRFDMLSRALRCMK", "amyloid nucleation score": "1.35 ± 0.34"}, {"substance": "SRHSGGAYNIVTMVT", "amyloid nucleation score": "0.517 ± 0.33"}, {"substance": "SRILRLLHTVHCDGVGERLR", "amyloid nucleation score": "-0.104 ± 1.1"}, {"substance": "SRIYLLSDRSVFLLLYNYYR", "amyloid nucleation score": "-0.167 ± 0.41"}, {"substance": "SRLAKLSFKQGNTTVCTKSS", "amyloid nucleation score": "-0.742 ± 0.62"}, {"substance": "SRMGPGNYWANGKSFAARPP", "amyloid nucleation score": "-0.491 ± 1.4"}, {"substance": "SRRWNNDLGLFSRERKTTLV", "amyloid nucleation score": "-1.06 ± 1.7"}, {"substance": "SRSSGFAVTYSNTRTKKSKA", "amyloid nucleation score": "-1.77 ± 1.3"}, {"substance": "SRVNDQCVLSSWR", "amyloid nucleation score": "0.47 ± 0.5"}, {"substance": "SRWTQS", "amyloid nucleation score": "0.201 ± 0.88"}, {"substance": "SRYYASMYLGNYGWHVLLNW", "amyloid nucleation score": "-0.103 ± 0.23"}, {"substance": "SRYYFHFELFVWR", "amyloid nucleation score": "0.291 ± 0.7"}, {"substance": "SSAELFREPFQVNRCNCEGW", "amyloid nucleation score": "0.774 ± 0.47"}, {"substance": "SSAGMTRTKNGPPC", "amyloid nucleation score": "2.89 ± 0.082"}, {"substance": "SSDRAYVFCTRNMEVREGSK", "amyloid nucleation score": "-0.835 ± 0.72"}, {"substance": "SSEDAVRLLLIVIFFLTFKF", "amyloid nucleation score": "0.778 ± 0.49"}, {"substance": "SSEIDYVFMAPREV", "amyloid nucleation score": "-0.06 ± 0.63"}, {"substance": "SSERYLASQPNSSPSPSIPT", "amyloid nucleation score": "-0.421 ± 1.2"}, {"substance": "SSFRYVCCASRCRETSELLG", "amyloid nucleation score": "0.142 ± 0.5"}, {"substance": "SSGDVPGFSPYGKWDFWWTC", "amyloid nucleation score": "-0.151 ± 0.45"}, {"substance": "SSGFTLTSVRMGEMSTANNG", "amyloid nucleation score": "1.1 ± 0.66"}, {"substance": "SSIGVVKGCIVLWLSMWNQR", "amyloid nucleation score": "4.32 ± 0.066"}, {"substance": "SSKIRLFRDNTQYNGRWGSY", "amyloid nucleation score": "inactive"}, {"substance": "SSMLSSNRRSALWKQDVSKG", "amyloid nucleation score": "0.734 ± 1.1"}, {"substance": "SSMYDSCSLRCLGQVVR", "amyloid nucleation score": "0.711 ± 0.19"}, {"substance": "SSNYMFVCRSKDLEVLLVGY", "amyloid nucleation score": "0.398 ± 0.51"}, {"substance": "SSPPDNTKSKATLKALE", "amyloid nucleation score": "-1.5 ± 2.4"}, {"substance": "SSPWRYSDATFCTAGGEGKS", "amyloid nucleation score": "-0.465 ± 0.62"}, {"substance": "SSQDYAHSIAGLVYGC", "amyloid nucleation score": "-0.137 ± 0.98"}, {"substance": "SSRSGPPCACRTRKLACGMM", "amyloid nucleation score": "0.145 ± 0.47"}, {"substance": "SSSFPVMVYTHDAANCHRML", "amyloid nucleation score": "-0.763 ± 0.41"}, {"substance": "SSSYDY", "amyloid nucleation score": "-0.545 ± 0.28"}, {"substance": "SSTKG", "amyloid nucleation score": "0.956 ± 0.72"}, {"substance": "SSVLATFIKLQHQGRKRKDR", "amyloid nucleation score": "-0.198 ± 0.29"}, {"substance": "SSVRLDKNN", "amyloid nucleation score": "-0.315 ± 0.52"}, {"substance": "SSVVL", "amyloid nucleation score": "0.531 ± 0.44"}, {"substance": "SSYAHAVRTQDFKLASGHYV", "amyloid nucleation score": "-0.7 ± 0.88"}, {"substance": "SSYSRCTFKAFKLGSVRVQV", "amyloid nucleation score": "0.924 ± 0.7"}, {"substance": "STCSGISFVCHSTIIIKVTF", "amyloid nucleation score": "3.92 ± 0.12"}, {"substance": "STCSPKELQFMSYVCWVKFC", "amyloid nucleation score": "3.32 ± 0.11"}, {"substance": "STEVGYSFCHGGMSRTVCMC", "amyloid nucleation score": "1.45 ± 0.68"}, {"substance": "STMRLPWPGFRVHSL", "amyloid nucleation score": "0.901 ± 0.65"}, {"substance": "STRMVYR", "amyloid nucleation score": "-0.261 ± 0.95"}, {"substance": "STSDMLVDSRQIVGEYTSDL", "amyloid nucleation score": "-1.3 ± 1.7"}, {"substance": "STVWLSVGALAFARASGRRA", "amyloid nucleation score": "3.74 ± 0.12"}, {"substance": "STWFSFTFLWLMSRGVNQNF", "amyloid nucleation score": "1.56 ± 0.36"}]}]}
